Measured values from US20140105914A1 (ANTITOPE, published 2014).

T1: Recombinant CTLA4-fusion protein comprising the extracellular domain of human CTLA4 fused to the human IgG1 … (human, UniProt P16410 36-161)
T1 construct: extracellular domain; Bought reagent; Coated on ELISA plates at 0.5 ug/ml; also called CTLA4-Fc; CTLA4-Ig; not shown: human IgG1 constant domain (Fc); a Factor Xa site lies between CTLA4 and Fc, since the fusion was cle
T1 sequence (looked up): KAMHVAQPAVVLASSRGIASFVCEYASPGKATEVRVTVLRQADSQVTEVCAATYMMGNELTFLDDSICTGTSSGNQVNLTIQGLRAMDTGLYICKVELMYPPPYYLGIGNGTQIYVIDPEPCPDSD

T2: human CTLA4 expressed on the surface of T-cells (human, UniProt P16410 36-223)
T2 construct: whole, on cells; For flow cytometry the cells were fixed and treated with saponin; Also used as the target in the PBMC functional assays; also called CTLA4 expressed on T cells
T2 sequence (looked up): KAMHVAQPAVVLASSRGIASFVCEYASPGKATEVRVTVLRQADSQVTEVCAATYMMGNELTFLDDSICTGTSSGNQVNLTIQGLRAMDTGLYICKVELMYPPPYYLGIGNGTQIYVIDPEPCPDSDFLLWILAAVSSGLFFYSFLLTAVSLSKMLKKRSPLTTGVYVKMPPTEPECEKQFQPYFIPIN


Tests used:
[1] = molecular target: T1, Recombinant CTLA4-fusion protein …; experiment: ELISA on coated CTLA4-Fc
[2] = molecular target: T2, human CTLA4 expressed on the surface of …; experiment: flow cytometry on stimulated human CD4+ T cells, antibody at 5 ug/ml
Experimental: In order to determine whether the lead monoclonal antibodies bound to CTLA4 expressed on the surface of T-cells, a flow cytometric analysis was performed. Human peripheral T cells were isolated from human PBMC (peripheral blood mononuclear cells) and stimulated to enhance expression of CTLA4. CD4+ cells were purified from PBMC using a CD4⁺ T Cell Isolation Kit (Miltenyi Biotec, Bisley, UK), plated out in a 24 well plate (1×10⁶ cells/well) in AIM-V Medium (Invitrogen, Paisley, UK) and incubated at 37° C. overnight. Cells were stimulated with lonomycin (1 μg/ml) and PMA (phorbol 12-myristate 13-acetate) (50 ng/ml) and incubated 4 h at 37° C. Cells were washed once in AIM-V medium, fixed in PBS containing 2% formaldehyde for 15 min, and resuspended in FACS buffer (D-PBS containing 1% BSA, 0.05% sodium azide and 0.1% Saponin) at 2×10⁶ cells/ml and incubated 30 min at 4° C.
2×10⁵ cells were stained using either a 1 in 10 dilution of anti-CTLA4-PE conjugated antibody (BNI3) (Abcam, Cambridge, UK) as a positive control or with 5 μg/ml of individual anti-CTLA4 monoclonal antibodies together with a 1 in 50 dilution of anti-mouse IgG-PE conjugated antibody (Sigma). Mouse IgG (Sigma) was also included as separate controls for the different murine isotypes present within the lead monoclonal antibodies. […] Instrument settings were determined by analysis of relevant isotype control antibodies. […]

[3] = molecular target: T1, Recombinant CTLA4-fusion protein …; experiment: CTLA4 binding ELISA on coated CTLA4-Fc
[4] = molecular target: T2, human CTLA4 expressed on the surface of …; experiment: flow cytometry on CTLA4 expressed on T cells
[5] = molecular target: T2, human CTLA4 expressed on the surface of …; experiment: cell-based or functional assay

binding result [1] | binding result [2] | binding result [3] | binding result [4] | IFN-gamma secretion in human mixed lymphocyte reaction (T cell activation), antibody at 150 ug/ml, compared to MDX010 [5] | Binder
binds | binds |  |  |  | murine monoclonal antibody 8H5 (subclone 8H5-1B1) (antibody, V domains shown, Mouse hybridoma antibody with a kappa light chain; also called 8H5-1A1) VH: QVQLQQSGDDLVKPGASVKLSCKASGYTFTSYWINWIKQRPGQGLEWIGRIAPGSGTTYYNEVFKGKATLTVDKYSSTAYIQLSSLSSEDSAVYFCARGDYGSYWGQGTLVTVSS VL: QIVLTQSPAIMSASPGEKVTMTCSASSSISYMHWFQQKPGTSPKRWIYDTSKLASGVPARFSGSGSGTSYSLTINSMEAEDAATYYCHQRTSYPLTFGAGTKLELK
binds | binds |  |  |  | murine monoclonal antibody 3B10 (subclone 3B10-4F7) (antibody, V domains shown, Mouse hybridoma antibody with a kappa light chain; also called 3B10-6E3) VH: EVQLQQFGAELVKPGASVKMSCKASGYTFTDYNMDWVRQSHGKSLEWIGNINPNSESTSYNQKFKGKATLTVDKSSSTAYMELRSLTSDDTAVYYCTRDGNRYDAWFAYWGQGTLVTVSS VL: QIVLTQSPAIMSASPGEKVTMTCSASSSVTYMHWFQQKPGTSPKLWIYSTSILASGVPARFSGSGSGTSYSLTISRMEAEDAATYYCQQRTSYPLTFGTGTKLELK
 |  | binds | binds |  | chimeric 3B10 human IgG1 antibody (antibody, V domains shown, Biotinylated when used as the labelled competitor in Example 6., Gamma 4 versions were also cloned; also called 3B10 chimeric antibody; parental 3B10 chimeric antibody) VH: EVQLQQFGAELVKPGASVKMSCKASGYTFTDYNMDWVRQSHGKSLEWIGNINPNSESTSYNQKFKGKATLTVDKSSSTAYMELRSLTSDDTAVYYCTRDGNRYDAWFAYWGQGTLVTVSS VL: QIVLTQSPAIMSASPGEKVTMTCSASSSVTYMHWFQQKPGTSPKLWIYSTSILASGVPARFSGSGSGTSYSLTISRMEAEDAATYYCQQRTSYPLTFGTGTKLELK
 |  | binds | binds |  | chimeric 8H5 human IgG1 antibody (antibody, V domains shown, Biotinylated when used as the labelled competitor in Example 6., Gamma 4 versions were also cloned; also called 8H5 chimeric antibody; h8H5 parent IgG1) VH: QVQLQQSGDDLVKPGASVKLSCKASGYTFTSYWINWIKQRPGQGLEWIGRIAPGSGTTYYNEVFKGKATLTVDKYSSTAYIQLSSLSSEDSAVYFCARGDYGSYWGQGTLVTVSS VL: QIVLTQSPAIMSASPGEKVTMTCSASSSISYMHWFQQKPGTSPKRWIYDTSKLASGVPARFSGSGSGTSYSLTINSMEAEDAATYYCHQRTSYPLTFGAGTKLELK
 |  |  |  | 2 fold | lead humanised variant VH5/VK4 anti-CTLA4 antibody (antibody, V domains shown) VH: QVQLVQSGAELKKPGASVKVSCKASGYTFTSYWINWIRQAPGQGLEWIGRIAPGSGTTYYNEVFKGRVTITVDKSTSTAYMELSSLRSEDTAVYFCARGDYGSYWGQGTLVTVSS VL: EIVLTQSPATLSLSPGERATLSCSASSSISYMHWFQQRPGQSPRRWIYDTSKLASGVPARFSGSGSGTDYTLTISSLEPEDFATYYCHQRTSYPLTFGQGTKLEIKR
